Assay results: publication PMC13570301 (2026)
Residue numbers refer to the chain shown, from its start. Numbers in names are those of the source.

B1: CHIP wild type, recombinant, C-terminal His tag (pET30-CHIP-His) (enzyme)
chain: MKGKEEKEGGARLGAGGGSPEKSPSAQELKEQGNRLFVGRKYPEAAACYGRAITRNPLVAVYYTNRALCYLKMQQHEQALADCRRALELDGQSVKAHFFLGQCQLEMESYDEAIANLQRAYSLAKEQRLNFGDDIPSALRIAKKKRWNSIEERRIHQESELHSYLSRLIAAERERELEECQRNHEGDEDDSHVRAQQACIEAKHDKYMADMDELFSQVDEKRKKRDIPDYLCGKISFELMREPCITPSGITYDRKDIEEHLQRVGHFDPVTRSPLTQEQLIPNLAMKEVIDAFISENGWVEDY
B2: CHIP P228S, recombinant, C-terminal His tag (enzyme)
chain: B1 chain with P228S
B3: CHIP G33S, recombinant, C-terminal His tag (enzyme)
chain: B1 chain with G33S

Target: UBE2D2 (1–147), from the plasmid pHis//2 Hs UBE2D2 (1–147) (human, UniProt P62837 1-147)
Sequence (P62837 whole entry): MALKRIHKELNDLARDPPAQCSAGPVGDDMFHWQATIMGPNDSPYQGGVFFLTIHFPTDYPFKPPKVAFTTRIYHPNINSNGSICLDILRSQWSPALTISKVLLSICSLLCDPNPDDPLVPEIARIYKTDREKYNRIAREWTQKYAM
Assay: BLI

| Kd [µM] | Binder |
| --- | --- |
| 14.3 | B1 |
| 44.9 | B2 |
| 24.2 | B3 |
